Laboratory results from IntAct's records for PubMed 15949802.

B1: Peroxisomal targeting signal receptor (Saccharomyces cerevisiae), P35056 (parent)
chain: MDVGSCSVGNNPLAQLHKHTQQNKSLQFNQKNNGRLNESPLQGTNKPGISEAFISNVNAISQENMANMQRFINGEPLIDDKRRMEIGPSSGRLPPFSNVHSLQTSANPTQIKGVNDISHWSQEFQGSNSIQNRNADTGNSEKAWQRGSTTASSRFQYPNTMMNNYAYASMNSLSGSRLQSPAFMNQQQSGRSKEGVNEQEQQPWTDQFEKLEKEVSENLDINDEIEKEENVSEVEQNKPETVEKEEGVYGDQYQSDFQEVWDSIHKDAEEVLPSELVNDDLNLGEDYLKYLGGRVNGNIEYAFQSNNEYFNNPNAYKIGCLLMENGAKLSEAALAFEAAVKEKPDHVDAWLRLGLVQTQNEKELNGISALEECLKLDPKNLEAMKTLAISYINEGYDMSAFTMLDKWAETKYPEIWSRIKQQDDKFQKEKGFTHIDMNAHITKQFLQLANNLSTIDPEIQLCLGLLFYTKDDFDKTIDCFESALRVNPNDELMWNRLGASLANSNRSEEAIQAYHRALQLKPSFVRARYNLAVSSMNIGCFKEAAGYLLSVLSMHEVNTNNKKGDVGSLLNTYNDTVIETLKRVFIAMNRDDLLQEVKPGMDLKRFKGEFSF
partner: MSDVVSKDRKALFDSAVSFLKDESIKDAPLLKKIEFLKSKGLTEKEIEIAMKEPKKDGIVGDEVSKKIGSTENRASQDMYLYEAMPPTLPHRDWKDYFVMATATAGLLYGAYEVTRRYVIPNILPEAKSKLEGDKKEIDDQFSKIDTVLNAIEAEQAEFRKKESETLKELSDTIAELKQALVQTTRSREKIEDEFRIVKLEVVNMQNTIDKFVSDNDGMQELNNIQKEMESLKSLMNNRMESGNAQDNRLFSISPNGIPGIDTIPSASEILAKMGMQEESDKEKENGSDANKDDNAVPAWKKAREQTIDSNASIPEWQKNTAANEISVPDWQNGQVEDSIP

Variants of: B1
Details: with pex14_yeast PEX14, P53112

| effect of a mutation on the interaction | Variant |
| --- | --- |
| disrupting interaction | W120A;W204A |

Variants of: B1
Details: with pex14_yeast PEX14, P53112
Remark: another data set of the same source

| effect of a mutation on the interaction | Variant |
| --- | --- |
| decreasing interaction | W204A |
